Data on one molecule can be found in US10677782B2, “Methods of determining interferon having direct inhibitory effects on tumors and uses thereof” (SUPERLAB FAR EAST LIMITED, priority 2013, dated 2020).

Series [1] deals with human lung cancer SPC-A4 xenografts. The series can be described thus: Human lung cancer SPC-A4 xenografts in nude mice (Example 4). Format: in vivo. The note with it: for TV (mm^3, mean ± SD) (D0): day 0, start of treatment; for TV (mm^3, mean ± SD) (D21): day 21. The protocol: Before commencement of this study, the xenografts were passaged twice in nude mice. Under sterile conditions, well-grown tumors were cut into 1.5 mm^3 fragments and one such fragment was injected by trocar needle into the right flank of each study animal. […] Individual tumor size (length and width) was measured twice per week with microcalipers. Tumor volume (V) was calculated using the formula: V=(length×width^2)/2. Individual relative tumor volume (RTV) was calculated using the formula: RTV=Vt/V0, where Vt is the tumor volume on the day of measurement and V0 is the tumor volume on the day of first treatment. Therapeutic effect of the test article or control article was expressed in terms of TIC (%), using the formula: TIC (%) (mean RTV of the treated group/mean RTV of the control group)×100%; and in terms of % Inhibition, using the formula: % Inhibition=100%−T/C %.
The 1.5 mm^3 fragments were then used for s.c. implantation into the test animals.
For orientation: Xenograft models place foreign cells or tissue in a host animal.

Series [2] can be described thus: Tolerability and body weight of tumor-bearing mice, Example 1. The format is in vivo, BALB/cA nu/nu mice. The note with it: 0.05-0.15 mg/mouse i.t. every other day, 21 days.
Description: The animals used were 4-6 weeks old male BALB/cA nu/nu mice, weighing about 23±2 g, obtained from the Shanghai Institute of Materia Medica (Shanghai, P.R. China). The study protocol was reviewed by the Committee on the Use and Care of Animals of Shanghai Institute of Materia Medica for compliance with regulations, and Committee approval was obtained prior to study initiation. Wherever possible, procedures used in this study were designed to avoid or minimize discomfort, distress, and pain to the animals. Animals that experience severe or chronic pain or distress that could not be relieved were painlessly euthanized, in accordance to regulations. Animals were housed 6 to a cage. They were ear-marked with ear hole punch identification. The room temperature was maintained at 25° C.±1° C. Lighting was set at 12 hr on and 12 hr off. Food was provided ad libitum. City tap water, filtered with a 5 micrometer (μm) filter, was provided to the animals ad libitum via water bottles.
Animals were assigned to treatment groups randomly. Initially, all animals were placed in one large animal cage. For assignment to the study, they were later separately housed, with 6 animals per cage per treatment group. […] Tumor growth was monitored by measuring the length and width of each tumor twice a week during the course of the study. […]
Another series has as its system different cancer cells. The series can be described thus: Cell viability, Am-Blue assay, 48 hr, across the cancer cell lines tested. Format: cell-based, human. The note with it: 100 mcg/ml, any of the cancer cell lines. The protocol:
Cell culture and reagents human lung cancer cell lines (A549, H1299, H460, Calu-1), human liver cancer cell lines (SMMC-7721, Huh-7, CL-1), human cervical carcinoma cell line (Hela), human breast cancer cell line (MDA-MB-231), human pancreatic cancer cell line (PANC-1) and human colon cancer cell lines (SW620, HT29, SW480) were purchased from the Shanghai Cell Collection (Shanghai, China). The above cell lines were cultured in 5% CO2 at 37° C. in corresponding complete growth medium formulated by the Shanghai Cell Collection, with 10% heat-inactivated fetal bovine serum (Biochrom, Germany), supplemented with 4 mM glutamine, 50 U/ml penicillin and […] streptomycin.
About 5×10^3 cells in 100 μl complete medium per well were plated in 96-well plates, incubated overnight, and then treated with IFN α-2b or rSIFN-co at concentrations of 100 μg/ml, 50 μg/ml, 25 μg/ml, 12.5 μg/ml, 6.25 μg/ml, 3.13 μg/ml, 1.56 μg/ml, 0.78 μg/ml, 0.39 μg/ml, and 0.20 μg/ml, respectively, for about 48 hr, at which time the cells were harvested for analysis. The cell viability rate was evaluated by SunBio Am-Blue assay kit (Cat #: SBAB8025, Shanghai SBO Medical Biotechnology Co., Ltd, Shanghai, China). […] Results are shown in FIG. 5, in which viability of the tumor cells was expressed as a percentage relative to control cells that were not treated. […]

The next series relates to SW620 tumor cells. Put plainly: Cell viability over 1-6 days, MTT assay. Format: cell-based, human. The note with it: 10 μg/ml. In general terms: Formazan colour is commonly taken as a measure of viable cells.
In the next series the test system is Axin2 mRNA in A549 cells. The series can be described thus: qPCR of Wnt pathway target genes in A549 cells. The format is cell-based, human. The note with it: 10 μg/ml, 24 hr; Mock control set at 1. The protocol:
(§1) After 24 hr of treatment, cellular total mRNA was isolated using TRIZOL Reagent and cDNA was synthesized and further subjected to qPCR, using specific primers of four (4) Wnt signaling downstream genes, Axin2, CD24, Survivin and ID2. Experiments were conducted in triplicate and normalized with the Mock group.
(§2) Total mRNA was isolated using TRIZOL Reagent (Invitrogen, Carlsbad, Calif.) according to the manufacturer's instructions. Complementary DNA (cDNA) was synthesized using a RT-PCR Kit (Cat #: FSQ-101, TOYOBO, Japan) according to the manufacturer's instructions and then subjected to qPCR with a SYBR Green PCR kit (Cat #: QPK-201, TOYOBO, Japan). The primers of the four Wnt pathway target genes were as follows: Axin2 sense primer: 5′-[…]-3′ (SEQ ID NO:8) and antisense primer: 5′-[…]-3′ (SEQ ID NO: 9); CD24 sense primer: 5′-[…]-3′ (SEQ ID NO: 10) andantisense primer: 5′-[…]-3′ (SEQ ID NO: 11); Survivin sense primer: 5′-[…]-3′ (SEQ ID NO: 12) and antisense primer: 5′-[…]-3′ (SEQ ID NO: 13) and ID2 sense primer: 5′-[…]-3′ (SEQ ID NO: 14) and antisense primer: 5′-[…]-3′ (SEQ ID NO: 15).
(§3) The amplification protocol consisted of incubations at 95° C. for 1 minute, 40 cycles (95° C. for 15 seconds, 60° C. for 15 seconds, 72° C. for 30 seconds). Incorporation of the SYBR Green dye into PCR products was monitored in real time with a Bio-Rad Detection System and subsequently analyzed using Bio-Rad CFX manager 2.1 software. The samples were pooled for each condition and run in duplicate. Treated samples were compared to Mock using the 2^−ΔΔCt method and plotted as fold change. GAPDH was used as the normalization control.

A further series deals with CD24 mRNA in A549 cells. The series can be described thus: qPCR of Wnt pathway target genes in A549 cells. The format is cell-based, human. The note with it: 10 μg/ml, 24 hr; Mock control set at 1. The protocol: as §1, §2, §3
Series [3] relates to Survivin mRNA in A549 cells. Put plainly: qPCR of Wnt pathway target genes in A549 cells. Format: cell-based, human. The note with it: 10 μg/ml, 24 hr; Mock control set at 1. The protocol: as §1, §2, §3
Where [4] appears, read: 0.05 mg/mouse i.t. every other day.
[5] abbreviates: 0.10 mg/mouse i.t. every other day.
Where [6] appears, read: 0.15 mg/mouse i.t. every other day.

Protocol for SW620 tumor cells: The cell survival rate was evaluated in a standard MTT assay (3-(4,5-dimethylthiazol-2-yl)-2,5-diphenyltetrazolium bromide assay, Sigma, St. Louis, Mo.). For the assay, about 20 μl MTT (at 4 mcg/ml) was added to each well. The cells were incubated at 37° C. for 4 hr. After that, the supernatant of each well was drawn off carefully and then an equal volume (150 microliter) of dimethyl sulfoxide (DMSO) was added to each well and mixed thoroughly on a shaker for 15 min. The absorbance from the plates was read at 595 nm with a Thermo Scientific Microplate Reader (Thermo Fisher Scientific Inc., Lowell, Mass.). The relative cell viability was calculated as follows: Cell viability=(Treated group(OD595) minus blank(OD595))/(Control group(OD595) minus blank(OD595))×100%.

B1: rSIFN-co: Recombinant super-compound interferon; amino acid sequence SEQ ID NO: 1 (same as interferon alfacon-1), encoded by SEQ ID NO: 2, novel tertiary structure (protein)
chain: MCDLPQTHSLGNRRALILLAQMRRISPFSCLKDRHDFGFPQEEFDGNQFQKAQAISVLHEMIQQTFNLFSTKDSSAAWDESLLEKFYTELYQQLNDLEACVIQEVGVEETPLMNVDSILAVKKYFQRITLYLTEKKYSPCAWEVVRAEIMRSFSLSTNLQERLRRKE
modifications: Amino acid sequence of recombinant interferon
With B1, the results for the “TV (mm^3, mean ± SD) (D0)” value in series [1] (setting [4]), in series [1] (setting [5]) and in series [1] (setting [6]) were 170 ± 41 mm^3, 168 ± 49 mm^3 and 169 ± 40 mm^3, respectively. Further, the “TV (mm^3, mean ± SD) (D21)” value in series [1] (setting [4]) was 2244 ± 1043 mm^3; in series [1] (setting [5]), 2388 ± 1544 mm^3; in series [1] (setting [6]), 2284 ± 653 mm^3. Moreover, the “tolerability: signs of toxicity or weight loss” value in series [2] is “no signs of toxicity or weight loss”. In addition, in the series on different cancer cells, the cell viability result is given as “cell viability could not be detected”. Further, the “cell viability, time dependent effect” value in the series with SW620 tumor cells is on record as “strongly decreased cell viability of SW620 cells in a time-dependent manner”. Besides, in the series with Axin2 mRNA in A549 cells, the “relative expression level of Axin2 mRNA” value is given as “about 0.4”. Besides, the “relative expression level of CD24 mRNA” value in the series on CD24 mRNA in A549 cells is given as “about 0.4”. In addition, the “relative expression level of Survivin mRNA” value in series [3] is given as “about 0.4”.
